Assay results published in patent US20050226813A1, “Labelled somatostatin analogs backbone cyclized through metal complexation” (priority 2002, published 2005).
*1 amine or outer side, *2 acyl side, *3 side chain or, on linkers, in order; H or OH if unused. Where no end group is shown, it is not given here. [ ]: non-standard residue; d: D form. ReO = oxorhenium(V), one metal core binding both hemi-chelators, from trichlorooxobis(triphenylphosphine)rhenium(V); GlyN3 = N-(3-aminopropyl)glycine amide, Cys acylated on the omega-amine, NC(=O)CN(CCCN[*:3])[*:1]; GlyN6 = Gly building unit carrying an omega-amine (Cys attached there); N(2-Aminoethyl)Gly = O=C(CN(CCN[*:3])[*:1])[*:2]

B1: ReO-GF-43 (peptide)
peptide: CGFWWKTFG
modifications: not fully specified; D-Cys at 1; D-Trp at 5; GlyN2 building unit at 9 with L-Cys on its omega-amine; C-terminal amide; ReO (oxorhenium(V)) chelated by the two Cys closes the ring
B2: ReO-GF-22 (peptide)
peptide: CXFWWKTFG
modifications: L-Cys at 1; beta-Ala at 2 (written X); D-Trp at 5; GlyN3 building unit at 9 with D-Cys on its omega-amine; C-terminal amide; ReO (oxorhenium(V)) chelated by the two Cys closes the ring
B3: ReO-GF-45 (peptide)
peptide: CFW[dW]KTF[N(2-Aminoethyl)Gly](Cys)-NH2
modifications: bridge (positions not given here) via ReO; not fully specified (bridges); also: N2S2 oxorhenium(V) chelate via the two Cys
B4: ReO-GF-10 (peptide)
peptide: CGFWWKTFG
modifications: not fully specified; L-Cys at 1; D-Trp at 5; GlyN6 building unit at 9 with D-Cys on its omega-amine; C-terminal amide; ReO (oxorhenium(V)) chelated by the two Cys closes the ring
notes: also called ReO-LCys*-Gly-Phe-Trp-DTrp-Lys-Thr-Phe-GlyN6(DCys*)-NH2
B5: ReO-GF-13 (peptide)
peptide: CFW[dW]KTF[GlyN6](Cys)-NH2
modifications: bridge (positions not given here) via ReO; not fully specified (bridges); also: oxorhenium(V) metal chelate (N2S2)
B6: ReO-GF-28 (peptide)
peptide: CGFWWKTFG
modifications: not fully specified; D-Cys at 1; D-Trp at 5; GlyN3 building unit at 9 with D-Cys on its omega-amine; C-terminal amide; ReO (oxorhenium(V)) chelated by the two Cys closes the ring
B7: ReO-GF-44 (peptide)
peptide: CGFWWKTFG
modifications: not fully specified; D-Cys at 1; D-Trp at 5; GlyN2 building unit at 9 with D-Cys on its omega-amine; C-terminal amide; ReO (oxorhenium(V)) chelated by the two Cys closes the ring
B8: ReO-GF-35 (peptide)
peptide: CXFWWKTFG
modifications: D-Cys at 1; GABA at 2 (written X); D-Trp at 5; GlyN2 building unit at 9 with L-Cys on its omega-amine; C-terminal amide; ReO (oxorhenium(V)) chelated by the two Cys closes the ring
B9: ReO-GF-16 (peptide)
peptide: CFWWKTFG
modifications: not fully specified; D-Cys at 1; D-Trp at 4; GlyN6 building unit at 8 with D-Cys on its omega-amine; C-terminal amide; ReO (oxorhenium(V)) chelated by the two Cys closes the ring
B10: ReO-GF-23 (peptide)
peptide: CXFWWKTFG
modifications: D-Cys at 1; beta-Ala at 2 (written X); D-Trp at 5; GlyN3 building unit at 9 with L-Cys on its omega-amine; C-terminal amide; ReO (oxorhenium(V)) chelated by the two Cys closes the ring
B11: ReO-GF-11 (peptide)
peptide: CGFWWKTFG
modifications: not fully specified; D-Cys at 1; D-Trp at 5; GlyN6 building unit at 9 with L-Cys on its omega-amine; C-terminal amide; ReO (oxorhenium(V)) chelated by the two Cys closes the ring
notes: also called ReO-DCys*-Gly-Phe-Trp-DTrp-Lys-Thr-Phe-GlyN6(LCys*)-NH2
B12: ReO-GF-39 (peptide)
peptide: CXFWWKTFG
modifications: D-Cys at 1; beta-Ala at 2 (written X); D-Trp at 5; GlyN2 building unit at 9 with L-Cys on its omega-amine; C-terminal amide; ReO (oxorhenium(V)) chelated by the two Cys closes the ring
B13: ReO-GF-34 (peptide)
peptide: CXFWWKTFG
modifications: L-Cys at 1; GABA at 2 (written X); D-Trp at 5; GlyN2 building unit at 9 with D-Cys on its omega-amine; C-terminal amide; ReO (oxorhenium(V)) chelated by the two Cys closes the ring
B14: ReO-GF-3 (peptide)
peptide: CXFWWKTFG
modifications: D-Cys at 1; GABA at 2 (written X); D-Trp at 5; GlyN6 building unit at 9 with L-Cys on its omega-amine; C-terminal amide; ReO (oxorhenium(V)) chelated by the two Cys closes the ring
notes: also called ReO-GF-03; ReO-DCys*-GABA-Phe-Trp-DTrp-Lys-Thr-Phe-GlyN6(LCys*)-NH2
B15: ReO-GF-37 (peptide)
peptide: CXFWWKTFG
modifications: L-Cys at 1; beta-Ala at 2 (written X); D-Trp at 5; GlyN2 building unit at 9 with L-Cys on its omega-amine; C-terminal amide; ReO (oxorhenium(V)) chelated by the two Cys closes the ring
notes: also called ReO-LCys*-βAla-Phe-Trp-DTrp-Lys-Thr-Phe-GlyN2(LCys*)-NH2
B16: ReO-GF-25 (peptide)
peptide: CGFW[dW]KTF[GlyN3](Cys)-NH2
modifications: bridge (positions not given here) via ReO; not fully specified (bridges); also: N2S2 oxorhenium(V) chelate via the two Cys
B17: ReO-GF-15 (peptide)
peptide: CFWWKTFG
modifications: not fully specified; D-Cys at 1; D-Trp at 4; GlyN6 building unit at 8 with L-Cys on its omega-amine; C-terminal amide; ReO (oxorhenium(V)) chelated by the two Cys closes the ring
B18: ReO-GF-29 (peptide)
peptide: CFWWKTFG
modifications: not fully specified; L-Cys at 1; D-Trp at 4; GlyN3 building unit at 8 with L-Cys on its omega-amine; C-terminal amide; ReO (oxorhenium(V)) chelated by the two Cys closes the ring
notes: also called ReO-LCys*-Phe-Trp-DTrp-Lys-Thr-Phe-GlyN3(LCys*)-NH2
B19: ReO-GF-8 (peptide)
peptide: CXFWWKTFG
modifications: not fully specified; D-Cys at 1; beta-Ala at 2 (written X); D-Trp at 5; GlyN6 building unit at 9 with D-Cys on its omega-amine; C-terminal amide; ReO (oxorhenium(V)) chelated by the two Cys closes the ring
B20: ReO-GF-30 (peptide)
peptide: CFW[dW]KTF[GlyN3](dC)-NH2
modifications: bridge (positions not given here) via ReO; not fully specified (bridges); also: N2S2 oxorhenium(V) chelate via the two Cys
B21: ReO-GF-47 (peptide)
peptide: CFWWKTFG
modifications: not fully specified; D-Cys at 1; D-Trp at 4; GlyN2 building unit at 8 with L-Cys on its omega-amine; C-terminal amide; ReO (oxorhenium(V)) chelated by the two Cys closes the ring
B22: ReO-GF-40 (peptide)
peptide: CXFWWKTFG
modifications: not fully specified; D-Cys at 1; beta-Ala at 2 (written X); D-Trp at 5; GlyN2 building unit at 9 with D-Cys on its omega-amine; C-terminal amide; ReO (oxorhenium(V)) chelated by the two Cys closes the ring
B23: ReO-GF-2 (peptide)
peptide: CXFWWKTFG
modifications: L-Cys at 1; GABA at 2 (written X); D-Trp at 5; GlyN6 building unit at 9 with D-Cys on its omega-amine; C-terminal amide; ReO (oxorhenium(V)) chelated by the two Cys closes the ring
notes: also called ReO-GF-02; ReO-LCys*-GABA-Phe-Trp-DTrp-Lys-Thr-Phe-GlyN6(DCys*)-NH2
B24: ReO-GF-20 (peptide)
peptide: CXFWWKTFG
modifications: not fully specified; D-Cys at 1; GABA at 2 (written X); D-Trp at 5; GlyN3 building unit at 9 with D-Cys on its omega-amine; C-terminal amide; ReO (oxorhenium(V)) chelated by the two Cys closes the ring
B25: ReO-GF-14 (peptide)
peptide: CFWWKTFG
modifications: not fully specified; L-Cys at 1; D-Trp at 4; GlyN6 building unit at 8 with D-Cys on its omega-amine; C-terminal amide; ReO (oxorhenium(V)) chelated by the two Cys closes the ring
notes: also called ReO-LCys*-Phe-Trp-DTrp-Lys-Thr-Phe-GlyN6(DCys*)-NH2

Molecular target: T1, human cloned SST-R2 (human, UniProt P30874 1-369)
T1 construct: whole, on cells; Assayed as membrane preparations of CHO cells expressing the cloned receptor, not as intact cells; also called hSST-R2; human SST-R2
T1 sequence (P30874 whole entry): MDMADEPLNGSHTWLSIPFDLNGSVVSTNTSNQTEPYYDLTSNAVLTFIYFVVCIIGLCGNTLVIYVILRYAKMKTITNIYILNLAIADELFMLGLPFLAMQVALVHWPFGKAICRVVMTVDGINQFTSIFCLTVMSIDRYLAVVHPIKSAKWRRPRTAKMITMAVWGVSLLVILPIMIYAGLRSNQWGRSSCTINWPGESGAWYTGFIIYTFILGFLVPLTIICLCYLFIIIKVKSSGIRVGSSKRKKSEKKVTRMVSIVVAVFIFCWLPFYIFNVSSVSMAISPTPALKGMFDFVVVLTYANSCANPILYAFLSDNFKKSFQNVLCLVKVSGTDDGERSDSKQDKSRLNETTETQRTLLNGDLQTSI
Assay: inhibition of 125I-Tyr11-SRIF-14 binding to membranes of CHO cells expressing cloned human SST-R2
Experimental: The SST analogs were tested for their potency in inhibition of the binding of ¹²⁵I-Tyr¹¹-SRIF (based on the method described by Raynor et. al., Molecular Pharmnacology 43: 838, 1993) to membrane preparations expressing the transmembranal SST receptors (SST-R1, 2, 3, 4 or 5). The receptor preparations used for these tests were either from the cloned human receptors selectively and stably expressed in Chinese Hamster Ovary (CHO) cells or from cell lines naturally expressing the SST-R5. Typically, cell membranes were homogenized in Tris buffer in the presence of protease inhibitors and incubated for 30-40 minutes with ¹²⁵I-Tyr¹¹-SRIF with different concentrations of the tested sample. The binding reactions were filtered, the filters were washed and the bound radioactivity was counted in β counter after addition of scintillation colution. Non specific binding was defined as the radioactivity remaining bound in the presence of 1 μM unlabeled SRIF-14.

Binder	IC50 [nM]
B1	> 10
B2	11
B3	> 10
B4	3
B5	~10
B6	> 10
B7	> 10
B8	> 10
B9	18
B10	~10
B11	4
B12	10
B13	~100
B14	6
B15	3
B16	> 10
B17	> 10
B18	2
B19	5
B20	13
B21	> 10
B22	> 10
B23	3.8
B24	10
B25	7
